Experimental data reported in paper doi:10.1101/2021.01.13.426364 (bioRxiv, 2021).

Columns and labels:
[1] = biological target: T1, Variant Surface Glycoprotein VSG2 on living VSG2-expressing bloodstream form trypanosomes (Trypanosoma brucei, UniProt P26332); test: Western blot of washed cells after incubation with nanobody
[2] = biological target: T2, Variant Surface Glycoprotein VSG2, soluble purified form (Trypanosoma brucei, UniProt P26332); test: crystal structure
[3] = biological target: T1, Variant Surface Glycoprotein VSG2 on …; test: flow cytometry on cells
[4] = biological target: T2, Variant Surface Glycoprotein VSG2, …; test: SEC
crystal structure = biological target: the molecule itself; test: crystal structure

B1: NB9_(VSG2) (VHH)
VHH: QVQLQESGGGLVQAGGSLRLSCTTSGLTFSNYAFSWFRQAPGEEREFVGAISWSGGRTDYADSVKGRFTISRDNAKNTFYLQMNSLKTEDTAVYYCAADLLGEGSRRSEYEYWGQGTQVTVSS
B1: binds [1]; binds [2].

B2: NB9_(VSG2) sortagged with FAM (VHH)
VHH: QVQLQESGGGLVQAGGSLRLSCTTSGLTFSNYAFSWFRQAPGEEREFVGAISWSGGRTDYADSVKGRFTISRDNAKNTFYLQMNSLKTEDTAVYYCAADLLGEGSRRSEYEYWGQGTQVTVSS
B2: binds [3].

B3: NB14_(VSG2) sortagged with FAM (VHH)
VHH: QVQLQESGGGLVQAGGSLRLSCEASGLTFSNYAMAWFRQAPEKEREFVAGISWTGSRTYYADSVRGRFTTSRDGHKNTVYLQMNDLKPEDTAVYLCAADLLGSGKDGTSVYEYWGQGTQVTVSS
B3: binds [3].

B4: NB19_(VSG2) sortagged with FAM (VHH)
VHH: QVQLQESGGGLVQAGGSLRLSCAASERTFSSLGMGWFRQGPGKEREFAAAISWSGVSTYYADSVKGRFTISRDNDKNTVYLQMNSLKPDDTAVYYCAATSSWNDMALKSAGWYEYWGQGTQVTVSS
B4: binds [3].

B5: NB14_(VSG2) (VHH)
VHH: QVQLQESGGGLVQAGGSLRLSCEASGLTFSNYAMAWFRQAPEKEREFVAGISWTGSRTYYADSVRGRFTTSRDGHKNTVYLQMNDLKPEDTAVYLCAADLLGSGKDGTSVYEYWGQGTQVTVSS
B5: binds [1]; binds [2].

B6: NB19_(VSG2) (VHH)
VHH: QVQLQESGGGLVQAGGSLRLSCAASERTFSSLGMGWFRQGPGKEREFAAAISWSGVSTYYADSVKGRFTISRDNDKNTVYLQMNSLKPDDTAVYYCAATSSWNDMALKSAGWYEYWGQGTQVTVSS
B6: binds [4]; binds [1].

B7: NB11_(VSG2) mutant L100A (VHH)
VHH: QVQLQESGGGLVQAGGSLTLSCAVSGLTFSNYAMGWFRQAPGKEREFVAAITWDGGNTYYTDSVKGRFTISRDNAKNTVFLQMNSLKPEDTAVYYCAAKALGSSRYELALAGYDYWGQGTQVTVSS
B7: binds [4].

B8: NB11_(VSG2) mutant L101A (VHH)
VHH: QVQLQESGGGLVQAGGSLTLSCAVSGLTFSNYAMGWFRQAPGKEREFVAAITWDGGNTYYTDSVKGRFTISRDNAKNTVFLQMNSLKPEDTAVYYCAAKLAGSSRYELALAGYDYWGQGTQVTVSS
B8: binds [4].

B9: NB11_(VSG2) mutant S103A (VHH)
VHH: QVQLQESGGGLVQAGGSLTLSCAVSGLTFSNYAMGWFRQAPGKEREFVAAITWDGGNTYYTDSVKGRFTISRDNAKNTVFLQMNSLKPEDTAVYYCAAKLLGASRYELALAGYDYWGQGTQVTVSS
B9: binds [4].

B10: Variant Surface Glycoprotein VSG2, soluble purified form (natural protein, Trypanosoma brucei, UniProt P26332 27-459, looked up)
chain: AAEKGFKQAFWQPLCQVSEELDDQPKGALFTLQAAASKIQKMRDAALRASIYAEINHGTNRAKAAVIVANHYAMKADSGLEALKQTLSSQEVTATATASYLKGRIDEYLNLLLQTKESGTSGCMMDTSGTNTVTKAGGTIGGVPCKLQLSPIQPKRPAATYLGKAGYVGLTRQADAANNFHDNDAECRLASGHNTNGLGKSGQLSAAVTMAAGYVTVANSQTAVTVQALDALQEASGAAHQPWIDAWKAKKALTGAETAEFRNETAGIAGKTGVTKLVEEALLKKKDSEASEIQTELKKYFSGHENEQWTAIEKLISEQPVAQNLVGDNQPTKLGELEGNAKLTTILAYYRMETAGKFEVLTQKHKPAESQQQAAETEGSCNKKDQNECKSPCKWHNDAENKKCTLDKEEAKKVADETAKDGKTGNTNTTGSS
B10: binds (crystal structure).

B11: NB11_(VSG2) triple mutant L100/L101/S103 (VHH)
VHH: QVQLQESGGGLVQAGGSLTLSCAVSGLTFSNYAMGWFRQAPGKEREFVAAITWDGGNTYYTDSVKGRFTISRDNAKNTVFLQMNSLKPEDTAVYYCAAKAAGASRYELALAGYDYWGQGTQVTVSS
B11: no binding [4].

B12: NB19_(VSG2) mutant E114A (VHH)
VHH: QVQLQESGGGLVQAGGSLRLSCAASERTFSSLGMGWFRQGPGKEREFAAAISWSGVSTYYADSVKGRFTISRDNDKNTVYLQMNSLKPDDTAVYYCAATSSWNDMALKSAGWYAYWGQGTQVTVSS
B12: no binding [4].

B13: NB19_(VSG2) mutant Y115A (VHH)
VHH: QVQLQESGGGLVQAGGSLRLSCAASERTFSSLGMGWFRQGPGKEREFAAAISWSGVSTYYADSVKGRFTISRDNDKNTVYLQMNSLKPDDTAVYYCAATSSWNDMALKSAGWYEAWGQGTQVTVSS
B13: no binding [4].

B14: NB19_(VSG2) mutant E114/Y115A (VHH)
VHH: QVQLQESGGGLVQAGGSLRLSCAASERTFSSLGMGWFRQGPGKEREFAAAISWSGVSTYYADSVKGRFTISRDNDKNTVYLQMNSLKPDDTAVYYCAATSSWNDMALKSAGWYAAWGQGTQVTVSS
B14: no binding [4].
